Test results taken from patent US20230212222A1 (ANYGEN CO., LTD., priority 2020, published 2023).
Numbered stars: 1 amine (or outer) side, 2 acyl side, 3 side chain; on linkers, the order of the positions; unused ones are H or OH. Square brackets hold non-standard residues; d marks the D form. Ends that are not written are not given here. * marks the point of attachment. DAMP‑3 = His whose imidazole is a 1,3-diphenethyl-2,3-dihydro-1H-imidazol-4-yl group, O=C([C@H](CC1=CN(CCc2ccccc2)CN1CCc1ccccc1)N[*:1])[*:2]; 1,2‑diphenyl = His whose imidazole is a 1,2-diphenyl-1H-imidazol-4-yl group, O=C([C@H](Cc1cn(-c2ccccc2)c(-c2ccccc2)n1)N[*:1])[*:2]; 2‑(4-tert-butyl)phenyl = His carrying a 2-(4-tert-butylphenyl) group on the imidazole (imidazole C2), CC(C)(C)c1ccc(*)cc1; thiophene = His carrying a thiophen-2-yl group on the imidazole (imidazole C2), c1csc(*)c1; 1‑phenyl = His whose imidazole is a 1-phenyl-1H-imidazol-4-yl group, c1ccc(*)cc1; 2‑phenyl = His whose imidazole is a 2-phenyl-1H-imidazol-4-yl group; 1‑(4-tert-butyl)phenyl = CC(C)(C)c1ccc(*)cc1; dPhe(4-Me) = Cc1ccc(C[C@@H](N)C(=O)O)cc1; Trt = c1ccc(C(c2ccccc2)(c2ccccc2)*)cc1; Benzhydryl = c1ccc(C(c2ccccc2)*)cc1; Octanoyl = CCCCCCCC(=O)*

Molecular target: T1, GPR39 (G protein-coupled receptor 39) (Homo sapiens (Human), UniProt O43194 1-453)
T1 sequence: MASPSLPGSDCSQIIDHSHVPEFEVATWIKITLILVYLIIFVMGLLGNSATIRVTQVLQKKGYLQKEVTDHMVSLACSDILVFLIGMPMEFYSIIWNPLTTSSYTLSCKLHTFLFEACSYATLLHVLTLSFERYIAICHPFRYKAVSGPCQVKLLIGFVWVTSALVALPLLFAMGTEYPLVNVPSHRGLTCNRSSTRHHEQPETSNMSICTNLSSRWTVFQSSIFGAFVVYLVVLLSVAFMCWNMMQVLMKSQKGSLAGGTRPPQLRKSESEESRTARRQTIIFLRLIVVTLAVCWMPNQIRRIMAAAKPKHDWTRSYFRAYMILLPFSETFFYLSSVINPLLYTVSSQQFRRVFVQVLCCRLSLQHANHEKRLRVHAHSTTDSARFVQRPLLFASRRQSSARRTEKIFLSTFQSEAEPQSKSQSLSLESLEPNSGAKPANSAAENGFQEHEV
Experiment: cell-based or functional assay

| Binder | EC50 (luciferase reporter) [nM] | ECmax (-fold induction over basal) |
| --- | --- | --- |
| H(Trt)FYDQQARF (not fully specified; printed as His(trt)-Phe-Tyr-Asp-Gln-Gln-Ala-Arg-Phe) [HKFY-52] | 56400 | 15.5 -fold induction over basal |
| H(Trt)K(Octanoyl)FY [HKFY-1] | 150 | 20.5 -fold induction over basal |
| K(Octanoyl)H(Trt)FY [HKFY-55] | 2490 | 16.8 -fold induction over basal |
| [dH](Benzhydryl)K(Octanoyl)[dPhe(4-Me)]Y [HKFY-62] | 830 | 28.1 -fold induction over basal |
| H(Trt)GSK(Octanoyl)FY [HKFY-53] | 340 | 8 -fold induction over basal |
| H(Trt)K(caproic)FYDQQARF [HKFY-56] |  | 14.9 -fold induction over basal |
| H(1‑(4-tert-butyl)phenyl)K(Octanoyl)[dPhe(4-Me)]Y [HKFY-61] | 20 | 9.88 -fold induction over basal |
| H(1‑phenyl)K(Octanoyl)[dPhe(4-Me)]Y [HKFY-58] | 20 | 9.12 -fold induction over basal |
| H(DAMP‑3)K(Octanoyl)FY [HKFY-6] | 68400 | 15 -fold induction over basal |
| Lys(Octanoyl)-Phe-Tyr [HKFY-54] | 25900 | 7.8 -fold induction over basal |
| H(Trt)K(Octanoyl)LY [HKFY-51] | 120 | 14.4 -fold induction over basal |
| H(4‑hydroxybenzhydryl)K(Octanoyl)[dPhe(4-Me)]Y [HKFY-65] | 3 | 18.3 -fold induction over basal |
| H(1,2‑diphenyl)K(Octanoyl)[dPhe(4-Me)]Y [HKFY-59] | 550 | 6.76 -fold induction over basal |
| H(4‑methyltrityl)K(Octanoyl)FY [HKFY-5] | 1840 | 16 -fold induction over basal |
| H(2‑(4-tert-butyl)phenyl)K(Octanoyl)[dPhe(4-Me)]Y [HKFY-60] | 190 | 28.2 -fold induction over basal |
| H(2‑phenyl)K(Octanoyl)[dPhe(4-Me)]Y [HKFY-57] | 260 | 8.5 -fold induction over basal |
| H(Trt)K(Octanoyl)FS [HKFY-50] | 700 | 16.2 -fold induction over basal |
| H(thiophene)K(Octanoyl)[dPhe(4-Me)]Y [HKFY-63] | 6 | 13.5 -fold induction over basal |
| H(4‑methoxybenzhydryl)K(Octanoyl)[dPhe(4-Me)]Y [HKFY-64] | 7 | 16 -fold induction over basal |
